Source: patent US8030325B2, “Biosynthetic gene cluster for the production of a complex polyketide” (Wyeth LLC, priority 2004, dated 2011)

Test system: mesencephalic dopanergic neuron cultures
Assay: High-affinity 3H-DA uptake in ventral mesencephalic cultures, with or without MPP+ exposure
Type: cell-based, rat
Details: for protection against MPP toxicity (3H-DA uptake): pre-treatment 1 hr or 24 hr, MPP+ 1 hr, recovery 24 hr or 48 hr
Procedure: Ventral mesencephalic cultures were prepared from E15 rat embryos and maintained for […] before experimentation according to the method of Pong et al., J Neurochem.
Cultures were then exposed to 10 μM 1-methyl-4-phenylpyridinium (MPP+) for 1 hr, in the presence of drug. After the 1 hr exposure, media was changed 3×, and fresh drug was added for an additional 24 hr or 48 hr.

Molecule: CC/C1=C\CC(/C(C)=C/C(C)C(C)O)OC(=O)C2CCCCN2C(=O)C(=O)C2(O)OC(CCC2C)CC(O)C(C)C(O)CC(O)CC(O)/C(C)=C/C(C)CC(C)C1O (stereo not drawn) [meridamycin]
- protection against MPP toxicity (3H-DA uptake): partial, but significant protection

B1: GDNF: glial-derived neurotrophic factor, control (protein, UniProt P39905 78-211, looked up)
Glial cell line-derived …: SPDKQMAVLPRRERNRQAAAANPENSRGKGRRGQRGKNRGCVLTAIHLNVTDLGLGYETKEELIFRYCSGSCDAAETTYDKILKNLSRNRRLVSDKVGQACCRPIAFDDDLSFLDDNLVYHILRKHSAKRCGCI
- DA uptake in normal mesencephalic dopanergic neuron cultures (normal cultures, no MPP+): enhanced DA uptake
- protection against MPP toxicity (3H-DA uptake): partial, but significant protection
